Positions count from the first letter of the chain named. One block for each binder: values may come before it.
Legend:
[1] = biological target: T1, human Siglec15-mouse Fc protein (human); assay: cell based blocking FACS: human Siglec15-mouse Fc in solution, blocked ligand human LRRC4C on LRRC4C-3F12-1B9 cells
T1 construct: In house made
T1 chain: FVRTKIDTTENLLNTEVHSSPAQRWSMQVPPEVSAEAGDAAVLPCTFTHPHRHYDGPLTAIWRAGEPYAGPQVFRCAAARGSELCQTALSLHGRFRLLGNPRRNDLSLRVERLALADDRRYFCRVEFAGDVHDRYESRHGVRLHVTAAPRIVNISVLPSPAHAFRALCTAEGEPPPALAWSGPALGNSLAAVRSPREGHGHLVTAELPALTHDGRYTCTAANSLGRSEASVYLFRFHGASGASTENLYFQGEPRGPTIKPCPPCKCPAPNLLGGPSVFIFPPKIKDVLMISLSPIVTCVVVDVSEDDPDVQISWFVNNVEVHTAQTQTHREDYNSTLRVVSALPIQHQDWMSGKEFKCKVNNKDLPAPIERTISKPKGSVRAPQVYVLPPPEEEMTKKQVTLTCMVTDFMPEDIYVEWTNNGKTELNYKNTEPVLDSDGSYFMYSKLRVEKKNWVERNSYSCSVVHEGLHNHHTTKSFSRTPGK
Method: The activities of the anti-Siglec15 antibodies to block binding of Siglec15 protein to cell surface LRRC4C were evaluated by Flow Cytometry (FACS), using in house made LRRC4C-3F12-1B9 cells. Briefly, HEK-293 cells (ATCC #CRL-1573) were transfected with pCMV-T-P plasmid constructs with the nucleotide sequence encoding human LRRC4C (amino acid residues Met1-Ile640 of uniprot #Q9HCJ2) inserted between EcoRI and XbaI, following the instruction of lipofectamine 3000 transfection reagent (Thermo Fisher). A stable cell named LRRC4C-3F12-1B9 was chosen for subsequent cell based ligand-blocking assay.
Briefly, the anti-Siglec15 antibodies of the disclosure or controls were diluted with human Siglec15-mouse Fc protein (prepared in-house with SEQ ID NO: 26, 8 μg/ml […] in FACS buffer), starting at 66.67 nM with a 5-fold serial dilution, and incubated at room temperature for 40 minutes. Then, LRRC4C-3F12-1B9 cells were harvested from cell culture flasks, washed twice and re-suspended in PBS containing 2% v/v Fetal Bovine Serum (FACS buffer). Then, 1×10⁵ cells per well in 96 well-plates were incubated in 100 μL of the antibody/Siglec15-mouse Fc mixtures for 40 minutes at 4° C. […] Cells were washed twice and re-suspended in FACS buffer. Fluorescence was measured using a Becton Dickinson FACS Canto II-HTS equipment. Data was analyzed using Graphpad Prism software and IC₅₀ values were reported.

[2] = biological target: T2, human Siglec15 on human-siglec15-2D3-1E1 cells (human, UniProt Q6ZMC9 20-328); assay: cell based binding FACS on human-siglec15-2D3-1E1 cells
T2 construct: whole, on cells; Transfected HEK-293 cells; also called cell surface human Siglec15
T2 sequence (looked up): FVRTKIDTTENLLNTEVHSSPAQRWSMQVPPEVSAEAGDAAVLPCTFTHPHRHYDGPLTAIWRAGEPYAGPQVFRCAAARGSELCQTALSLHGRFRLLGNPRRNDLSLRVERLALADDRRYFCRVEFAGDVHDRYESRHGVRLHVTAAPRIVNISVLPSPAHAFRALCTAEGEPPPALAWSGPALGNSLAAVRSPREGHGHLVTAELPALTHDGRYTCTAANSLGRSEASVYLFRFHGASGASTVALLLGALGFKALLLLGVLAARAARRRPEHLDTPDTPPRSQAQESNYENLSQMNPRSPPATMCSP
Method: The binding activities of the anti-Siglec15 antibodies to cell surface Siglec15 were tested by flow cytometry (FACS), using in-house prepared human-siglec15-2D3-1E1 cells expressing human Siglec15 (amino acid residues Met1-Pro328 of uniprot #Q6ZMC9) on cell membranes. The human-siglec15-2D3-1E1 cells were prepared by transfecting HEK-293 cells (ATCC #CRL-1573) with pCMV-T-P plasmids inserted with human Siglec15 coding sequence between EcoRI and XbaI sites, following the instruction of lipofectamine 3000 transfection reagent (Thermo Fisher). The human-siglec15-2D3-1E1 cells were harvested from cell culture flasks, washed twice and re-suspended in phosphate buffered saline (PBS) containing 2% v/v Fetal Bovine Serum (FACS buffer). 2×10⁵ cells per well in 96 well-plates were incubated in 100 μL serially diluted anti-Siglec15 antibodies or controls (starting at 66.67 nM, 5-fold serial dilution) in FACS buffer for 40 minutes on ice. […] Following a 40-minute incubation at 4° C. in dark, cells were washed three times and re-suspended in FACS buffer. Fluorescence was measured using a Becton Dickinson FACS Canto II-HTS equipment. Data was analyzed using Graphpad Prism software and EC₅₀ values were reported.

[3] = biological target: T3, human Siglec15-Fc protein (human); assay: competitive ELISA: coated human Siglec15-Fc, blocked ligand biotin-labeled human LRRC4C-Fc
T3 construct: In house made; also called recombinant human Siglec15 protein with human IgG1 Fc at the C-terminus
T3 sequence (chain, as listed by the source limits assumed): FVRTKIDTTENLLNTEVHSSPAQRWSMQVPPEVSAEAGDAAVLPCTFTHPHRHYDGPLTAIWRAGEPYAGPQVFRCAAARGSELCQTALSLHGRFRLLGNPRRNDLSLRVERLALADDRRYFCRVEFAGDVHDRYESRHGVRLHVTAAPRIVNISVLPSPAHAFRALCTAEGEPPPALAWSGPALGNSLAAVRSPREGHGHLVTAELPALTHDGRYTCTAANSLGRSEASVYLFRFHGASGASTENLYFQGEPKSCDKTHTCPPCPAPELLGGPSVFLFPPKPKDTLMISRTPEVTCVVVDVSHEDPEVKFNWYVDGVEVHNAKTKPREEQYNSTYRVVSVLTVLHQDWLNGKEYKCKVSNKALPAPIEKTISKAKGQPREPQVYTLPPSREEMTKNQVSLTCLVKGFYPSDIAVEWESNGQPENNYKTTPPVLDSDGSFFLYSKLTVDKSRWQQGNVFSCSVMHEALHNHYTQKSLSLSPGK
Method: Serially diluted anti-Siglec15 antibodies or the controls (starting at 66.67 nM with a 5-fold serial dilution) in PBST with 2.5% w/v non-fatty milk were added to the Siglec15-Fc bound plates, 100 μl per well, and incubated with the human Siglec15-Fc protein at 37° C. for 40 minutes. Plates were washed 4 times again using wash buffer, then added and incubated for 40 minutes at 37° C. with 100 μl/well 290 ng/ml biotin-labeled human LRRC4C-Fc protein (prepared in-house with SEQ ID NO: 23). Plates were washed again using wash buffer. Thereafter, the plates were added with 100 μl/well streptavidin conjugated HRP (1:5000 dilution in PBST buffer, Jackson Immunoresearch, Cat #016-030-084) and incubated for 40 minutes at 37° C. Plates were washed again using wash buffer. Finally, TMB was added and the reaction was stopped using 1M H₂SO₄, and the absorbance of each well was read on a microplate reader using dual wavelength mode with 450 nm for TMB and 630 nm as the reference wavelength, then the OD (450-630) values were plotted against antibody concentration. Data was analyzed using Graphpad Prism software and IC₅₀ values were reported.
The mouse anti-Siglec15 antibodies of the disclosure were also tested in ligand blocking ELISA and benchmark blocking ELISA following the protocols described above.

IC50 [1]: 2.07 nM
B1: A2A5C7E8 (antibody, V domains shown)
VH: EVQLVQSGAEVKKPGESLRISCKGSGYSFTTYWISWVRQMPGKGLEWMGLIDPSDSYTNYSPSFQGHVTISTDKSISTAYLQWSSLKASDTAMYYCARGGYYGSEEDYWGQGTLVTVSS
VL: EIVLTQSPGTLSLSPGERATLSCRASQSVSSSRLAWFQQKSGQAPRLLIFDASSRATGIPDRFSGSGSGTDFTLTISRLEPEDFAVYYCQQYGSSPRTFGQGTKVEFK
notes: Fully human antibody from transgenic mouse hybridoma; also called A2A5C7E8-1

IC50 [1]: 3.78 nM
B2: A1E10G7H9 (antibody, V domains shown)
VH: QVQLQESGPGLVKPSGTLSLTCAVSGGSISSSNWWHWVRQPPGKGLEWIGEIYHSGNTNYKPSLKSRVTISVDKSKNQFSLKLSSVTAADTAVYYCARDEGNGWSNAFDIWGQGTMVTVSS
VL: ENVLTQSPGTLSLSPGERVTLSCRASQSVSSSYLAWYQQKPGQAPRFLIYGASGGATGIPDRFSGSGSGTDFTLTISRLEPEDFAVYYCQQYGSSPITFGQGTRLEIK
notes: Fully human antibody from transgenic mouse hybridoma

EC50 [2]: 0.998 nM | IC50 [3]: 0.868 nM
B3: B2D7H7A3C1 (antibody, V domains shown)
VH: QVQLQQSGAELVRPGTSVQMSCKAAGYTFTNYWIGWVKQRPGHGLEWVGDIHPGINYTNNNEKFRGKATLTADTSSNTAYMQLRGLTSDDSAIYYCARVDYDYDGSYIMDYWGQGTSVTVSS
VL: QIVLSQSPALLSASPGEKVTMTCRASSSVSYMYWYQQKPGSSPKPWIYATSNLTSGVPARFSGSGSGTSYSLTISRVEAEDAATYFCQQWNSKPWTFGGGSKLEIR
notes: Mouse monoclonal antibody from hybridoma; also called mouse B2D7H7A3C1

EC50 [2]: 1.91 nM | IC50 [3]: 1.04 nM
B4: B2H2H1H7 (antibody, V domains shown)
VH: B3 VH with N77S
VL: B3 VL with V3I, K102R
notes: Mouse monoclonal antibody from hybridoma; also called mouse B2H2H1H7; B2H2H1A7

EC50 [2]: 1.17 nM | IC50 [3]: 0.954 nM
B5: B2G12H3E8 (antibody, V domains shown)
VH: B3 VH with Q5K, A25V, N77S
VL: B3 VL
notes: Mouse monoclonal antibody from hybridoma; also called mouse B2G12H3E8

EC50 [2]: 11.6 nM | IC50 [3]: 1.57 nM | IC50 [1]: 0.586 nM
B6: anti-Siglec15 benchmark (ch5G12) (antibody, human IgG1, kappa, V domains shown)
VH: QVQLQQPGAELVKPGASVKMSCKASGYTFTSYWITWVIQRPGQGLEWIGDIYCGSDTMHYNEKFKNKATLTVDTSSSTAYMQLSSLTSEDSAVYYCARWWDYGSSYDYFDYWGQGTTLTVSS
VL: DIKMTQSPSSMYASLGERVTITCKASQDINSYLSWFQQKPGKSPKTLIYRANRLVDGVPSRFSGSGSGQDYSLTISSLEYEDMGIYYCLQYDEFPYTFGGGTKLEIKR
notes: ch5G12 (US 20190202912A1); also called BM; Siglec15-ch5G9

— patent US20230106715A1 (BIOSION, published 2023)
